Results published in patent US20110195021A1 (IMMUNOGEN, published 2011).
Substitutions are numbered along the chain they refer to. Like-named read-outs stand apart in the source and are kept apart here.

Legend:
human CD20 (human) [1] = biological target: human CD20 (human) (UniProt P11836); assay: flow cytometry on SU-DHL-4 cells
human CD20 (human) [2] = biological target: human CD20 (human) (UniProt P11836); assay: cell-based or functional assay
human CD20 [3] = biological target: T1, human CD20 (human, UniProt P11836 1-297); assay: flow cytometry on 300-19 cells transfected with wild type human CD20
T1 construct: whole, on cells; also called wild type CD20; MS4A1
T1 sequence (looked up): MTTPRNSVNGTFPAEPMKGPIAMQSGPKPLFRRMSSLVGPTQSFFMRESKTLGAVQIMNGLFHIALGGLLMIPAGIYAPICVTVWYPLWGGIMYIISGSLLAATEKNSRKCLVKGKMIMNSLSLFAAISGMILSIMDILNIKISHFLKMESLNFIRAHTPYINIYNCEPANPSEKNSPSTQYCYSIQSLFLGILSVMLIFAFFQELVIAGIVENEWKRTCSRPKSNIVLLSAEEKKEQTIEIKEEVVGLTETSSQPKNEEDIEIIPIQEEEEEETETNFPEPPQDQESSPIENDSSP

human CD20 [4] = biological target: T1, human CD20; assay: as above; remark: listed apart in the source
human CD20 [5] = biological target: T1, human CD20; assay: flow cytometry on BJAB cells, apparent dissociation constant from the MFI dose-response curve; muCD20-6 on BJAB cells
Procedure: (§1) Binding specificity was tested by flow cytometry using purified antibodies. […] Then, the cells were pelleted, washed, and incubated for 1 h with 100 μL of FITC-conjugated goat anti-mouse IgG-antibody (such as is obtainable from, for example Jackson Laboratory, 6 μg/mL in FACS buffer). The cells were pelleted again, washed with FACS buffer and resuspended in 200 μL of PBS containing 1% formaldehyde. Samples were acquired using a FACSCalibur flow cytometer with the HTS multiwell sampler or a FACS array flow cytometer and analyzed using CellQuest Pro (all from BD Biosciences, San Diego, US).
(§2) Data analysis was performed using CellQuest Pro (BD Biosciences, San Diego, US) and for each sample the mean fluorescence intensity for FL1 (MFI) was exported and plotted against the antibody concentration in a semi-log plot.

CD20-A170S P172S variant = biological target: T2, CD20-A170S P172S variant (human, UniProt P11836 1-297); assay: flow cytometry on 300-19 cells transfected with human CD20 A170S P172S
T2 construct: Stably expressed on 300-19 cells; also called CD20-AP; CD20AP
T2 chain: T1 sequence (looked up) with A170S, P172S

CD20 N163D = biological target: T3, CD20 N163D (human, UniProt P11836 1-297); assay: flow cytometry on 300-19 cells transfected with human CD20 N163D
T3 construct: whole, on cells; Stably expressed on 300-19 cells
T3 sequence (looked up): T1 sequence (looked up) with N163D

human CD20 [6] = biological target: T1, human CD20; assay: flow cytometry on 300-19 cells transfected with wild type human CD20; remark: listed apart in the source
human CD20 [7] = biological target: T1, human CD20; assay: flow cytometry on BJAB cells, apparent dissociation constant from the MFI dose-response curve; muCD20-7 on BJAB cells
Procedure: as §1, §2

CD20 N163D N166D = biological target: T4, CD20 N163D N166D (human, UniProt P11836 1-297); assay: flow cytometry on 300-19 cells transfected with human CD20 N163D N166D
T4 construct: whole, on cells; Stably expressed on 300-19 cells; also called CD20-NNDD
T4 sequence (looked up): T1 sequence (looked up) with N163D, N166D

human CD20 [8] = biological target: T1, human CD20; assay: flow cytometry on BJAB cells, apparent Kd
Procedure: as §1, §2
The value for the apparent dissociation constant (Kd) of each antibody was calculated using GraphPad Prism v4 (GraphPad software, San Diego, Calif.).

rituximab-SMCC-[^3H]DM1 (antibody)
EC50 (read off the curve) (human CD20 (human) [1]): 1 nM
IC50, cell-based viability assay, CD20-positive SU-DHL-4 cells (human CD20 (human) [2]): 0.24 nM

B1 (antibody)
EC50 (read off the curve) (human CD20 [3]): 0.4 nM

B1: rituximab (antibody, V domains shown)
VH: QVQLQQPGAELVKPGASVKMSCKASGYTFTSYNMHWVKQTPGRGLEWIGAIYPGNGDTSYNQKFKGKATLTADKSSSTAYMQLSSLTSEDSAVYYCARSTYYGGDWYFNVWGAGTTVTVSA
VL: QIVLSQSPAILSASPGEKVTMTCRASSSVSYIHWFQQKPGSSPKPWIYATSNLASGVPVRFSGSGSGTSYSLTISRVEAEDAATYYCQQWTSNPPTFGGGTKLEIK
EC50 (read off the curve) (human CD20 [4]): ~0.5 nM

B2: muCD20-6 (antibody, mouse IgG1, kappa, V domains shown)
VH: QIQLVQSGPELKKPGETVKISCKASGYKFTNVGMNWVKQVPGKGLKWMGWINTYTGEPAYADDFKGRFVFSLETSASAAFLQINNLKNEDTATYFCARGAYYRYDLGMDYWGQGTSVTVSS
VL: DIVLTQSPASLAVSLGQRAIISCRASESVDNFGNSFMHWYQQKPGQPPTLLIYRASNLESGIPARFSGSGSRTDFTLTVNPVEADDIATYYCQQSYEDPFTFGAGTKLELKR
notes: Murine monoclonal antibody purified from hybridoma (ATCC PTA-10486); also called murine CD20-6
Kd (human CD20 [5]): 0.4 nM
binding result (CD20-A170S P172S variant): binds
binding result (CD20 N163D): no binding (tested: 10^-7.5 M (about 3x10^-8 M))
EC50 (read off the curve) (human CD20 [6]): ~0.8 nM

B3: muCD20-7 (antibody, mouse IgG1, kappa, V domains shown)
VH: B2 VH with I2L, K28S, V32Y, V40A, A59S, V69A, A78T, F80Y, N84S
VL: B2 VL with I20T, E27G, N31S, T49K, I62V, S69G, V79I, Y91F, K111M
notes: Murine monoclonal antibody purified from hybridoma (ATCC PTA-10487); also called murine CD20-7
Kd (human CD20 [7]): 0.3 nM
binding result (CD20 N163D N166D): no binding (tested: 10^-7.5 M (about 3x10^-8 M))
binding result (CD20-A170S P172S variant): binds
Kd (human CD20 [8]): 0.4 nM
binding result (CD20 N163D): no binding (tested: 10^-7.5 M (about 3x10^-8 M))
EC50 (read off the curve) (human CD20 [6]): ~0.5 nM

B4: chCD20-7 (antibody, V domains shown)
VH: B2 VH with I2L, K28S, V32Y, V40A, A59S, V69A, A78T, F80Y, N84S
VL: B2 VL with I20T, E27G, N31S, T49K, I62V, S69G, V79I, Y91F, K111M
notes: Chimeric antibody: CD20-7 variable regions cloned into pchCD20-7HCN and pchCD20-7LCZ and expressed in HEK-293T cells; also called chimeric CD20-7
Kd (human CD20 [8]): 0.5 nM
